Results published in article PMC5224484 (Nucleic Acids Research, 2016).

T1: seleno-methionine labeled SRP72-PBD (L31M/L65M) (human, UniProt O76094 8-166, L31M | L65M, seleno-methionine labeled)
T1 sequence (looked up): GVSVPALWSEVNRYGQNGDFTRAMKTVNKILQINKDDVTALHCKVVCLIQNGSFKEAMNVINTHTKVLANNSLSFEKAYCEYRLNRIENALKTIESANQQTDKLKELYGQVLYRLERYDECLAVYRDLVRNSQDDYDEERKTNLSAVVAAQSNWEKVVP

T2: human SRP72 protein-binding domain (SRP72-PBD, 8-166) (human, UniProt O76094 8-166)
T2 sequence (looked up): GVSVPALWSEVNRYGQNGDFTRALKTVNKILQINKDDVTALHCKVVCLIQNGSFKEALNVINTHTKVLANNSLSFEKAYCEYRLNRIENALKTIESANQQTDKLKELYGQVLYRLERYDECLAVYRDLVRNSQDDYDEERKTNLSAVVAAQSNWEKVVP


Key:
[1] = molecular target: T1, seleno-methionine labeled SRP72-PBD …; assay: crystal structure
[2] = molecular target: T2, human SRP72 protein-binding domain …; assay: ITC

Row | binding result [1] | Kd [2] | dH [2] | Binder
1 | binds |  |  | untagged human SRP68 protein-binding domain (SRP68-PBD, 546-614) (domain or fragment, UniProt Q9UHB9 546-614, looked up) SQVKDNKPLVERFETFCLDPSLVTKQANLVHFPPGFQPIPCKPLFFDLALNHVAFPPLEDKLEQKTKSG
2 |  | 0.033 ± 0.011 µM | -65.7 ± 2.09 kJ/mol | His6-SRP68-PBD (human SRP68 546-614 from pETtrx1a) (domain or fragment, UniProt Q9UHB9 546-614, looked up) SQVKDNKPLVERFETFCLDPSLVTKQANLVHFPPGFQPIPCKPLFFDLALNHVAFPPLEDKLEQKTKSG
